We go through one molecule from patent US20100137190A1, “LIQUID COMPOSITION FOR EXTERNAL APPLICATION AND PREPARATION FOR EXTERNAL APPLICATION FOR TREATMENT OF SKIN ULCER” (priority 2006, published 2010).

The data set relates to ulcer model of delayed skin wound healing (60 sec ethanol exposure model). As to the kind of experiment: Healing effect of GM-CSF external agent on intractable skin ulcer. In kind it is in vivo. The protocol:
By using a C57BL/6 mouse, an ulcer model of delayed skin wound healing as an intractable skin ulcer model was produced. Specifically, full thickness dorsal skin tissue with a size of 2×1.5 cm of a C57BL/6 mouse was excised, whereby the fascia was exposed with almost no bleeding. Then, the wound area was completely covered with cotton which had been sufficiently soaked in 70% ethanol, whereby ethanol exposure for 30 sec, 60 sec, 300 sec and 600 sec was carried out. After that, the wound area was air-dried, and the area of the wound area was measured (day 0). 7 days after completion of the experiment, the area of the wound area was measured, which was compared with the area of the wound area on day 0, and a change in the area of the wound area was examined. As a result, the shrinkage of the wound area was reduced as the time of ethanol exposure was increased, and the shrinkage hardly occurred by the 300 sec exposure. Incidentally, the mouse subjected to 600 sec ethanol exposure died at 3 days after the experiment due to deterioration of systemic symptoms. In the case where the time of ethanol exposure was short such as 30 sec exposure or 60 sec exposure, the healing was delayed because the tissue around the wound area directly received degenerative damage due to ethanol, however, granulation tissue was formed in the wound area in one week after the ethanol exposure, and the wound area was covered with epidermal tissue in about 3 weeks and the healing was completed. The 60 sec exposure was to be a factor of delaying the shrinkage of the wound area, but there was no systemic symptom and its effect was sufficient, therefore, this mouse was adopted as an ulcer model of delayed skin wound healing.
As GM-CSF, a mouse-derived recombinant (R&D System) was used. A solution obtained by dissolving this GM-CSF in an atelocollagen solution at a concentration of 20 μg/100 μL was applied to an affected area of the above-mentioned ulcer model of delayed skin wound healing (60 sec ethanol exposure model) and coagulated, and evaluation was performed in the healing process for 7 days. Further, a group in which only an atelocollagen solution (a 3 mg/mL hydrochloric acid solution) was applied to the affected area and coagulated was used as a control. […] When the shrinkage of the wound area after 7 days was examined, the relative area of the wound area in the GM-CSF administration group was larger by about 15% than that of the control group, and the shrinking action of natural healing of a wound area was inhibited, and the wound area was exacerbated.

“Also recorded” adds a separate entry of the source.

B1: GM-CSF: granulocyte macrophage colony stimulating factor, mouse-derived recombinant (R&D System), dissolved in atelocollagen solution (protein, UniProt P01587 18-141, looked up)
Granulocyte-macrophage …: APTRSPITVTRPWKHVEAIKEALNLLDDMPVTLNEEVEVVSNEFSFKKLTCVQTRLKIFEQGLRGNFTKLKGALNMTASYYQTYCPPTPETDCETQVTTYADFIDSLKTFLTDIPFECKKPGQK
For the molecule B1, the “histology / symptoms of the wound area (edema, swelling)” value (20 μg/100 μL in atelocollagen solution, 7-day period) is listed as “edema was noted”. Besides, for the setting “20 μg/100 μL in atelocollagen solution, 7 days”, the “thickness of granulation tissue compared with control group” value is “slightly thicker”. Also, for the setting “20 μg/100 μL in atelocollagen solution, after 7 days, control atelocollagen only”, the “relative area of the wound area, larger than that of the control group” value is reported as “about 15%”. Further, the “wound healing effect on intractable skin ulcer (overall finding)” value (external application) was “does not have an effect on intractable skin ulcers; also recorded: does not have a wound healing accelerating effect”.
